Sequences and labels used below:
B1: dihydrolipoyl dehydrogenase (E3) of the E. coli pyruvate dehydrogenase complex (enzyme, E. coli K12 (endogenous), UniProt P0A9P0 1-474, looked up)
chain: MSTEIKTQVVVLGAGPAGYSAAFRCADLGLETVIVERYNTLGGVCLNVGCIPSKALLHVAKVIEEAKALAEHGIVFGEPKTDIDKIRTWKEKVINQLTGGLAGMAKGRKVKVVNGLGKFTGANTLEVEGENGKTVINFDNAIIAAGSRPIQLPFIPHEDPRIWDSTDALELKEVPERLLVMGGGIIGLEMGTVYHALGSQIDVVEMFDQVIPAADKDIVKVFTKRISKKFNLMLETKVTAVEAKEDGIYVTMEGKKAPAEPQRYDAVLVAIGRVPNGKNLDAGKAGVEVDDRGFIRVDKQLRTNVPHIFAIGDIVGQPMLAHKGVHEGHVAAEVIAGKKHYFDPKVIPSIAYTEPEVAWVGLTEKEAKEKGISYETATFPWAASGRAIASDCADGMTKLIFDKESHRVIGGAIVGTNGGELLGEIGLAIEMGCDAEDIALTIHAHPTLHESVGLAAEVFEGSITDLPNPKAKKK
notes: dihydrolipoyl dehydrogenase (E3), E. coli K12, endogenous subunit of the native PDHc; source: endogenous, E. coli K12
B2: dihydrolipoyl transacetylase (E2p) of the E. coli pyruvate dehydrogenase complex (enzyme, E. coli K12, UniProt P06959 1-630, looked up)
chain: MAIEIKVPDIGADEVEITEILVKVGDKVEAEQSLITVEGDKASMEVPSPQAGIVKEIKVSVGDKTQTGALIMIFDSADGAADAAPAQAEEKKEAAPAAAPAAAAAKDVNVPDIGSDEVEVTEILVKVGDKVEAEQSLITVEGDKASMEVPAPFAGTVKEIKVNVGDKVSTGSLIMVFEVAGEAGAAAPAAKQEAAPAAAPAPAAGVKEVNVPDIGGDEVEVTEVMVKVGDKVAAEQSLITVEGDKASMEVPAPFAGVVKELKVNVGDKVKTGSLIMIFEVEGAAPAAAPAKQEAAAPAPAAKAEAPAAAPAAKAEGKSEFAENDAYVHATPLIRRLAREFGVNLAKVKGTGRKGRILREDVQAYVKEAIKRAEAAPAATGGGIPGMLPWPKVDFSKFGEIEEVELGRIQKISGANLSRNWVMIPHVTHFDKTDITELEAFRKQQNEEAAKRKLDVKITPVVFIMKAVAAALEQMPRFNSSLSEDGQRLTLKKYINIGVAVDTPNGLVVPVFKDVNKKGIIELSRELMTISKKARDGKLTAGEMQGGCFTISSIGGLGTTHFAPIVNAPEVAILGVSKSAMEPVWNGKEFVPRLMLPISLSFDHRVIDGADGARFITIINNTLSDIRRLVM
modifications: lipoylated residues K41, K144 and K245 (mass spectrometry); dihydrolipoyllysine modelled at K245 in the structure
notes: dihydrolipoyl transacetylase (E2p), aceF gene, E. coli strain K12; native full-length protein, modelled catalytic domain starts at P384; It was modelled as the innermost one (K245), from PDB 1qjo; also called dihydrolipoyl acyltransferase; E2p core; source: endogenous, E. coli K12; copies: 24

The target in data set [1] is T1, dihydrolipoyl transacetylase (E2p) core of E. coli PDHc (Escherichia coli, UniProt P06959).
T1 construct: gene aceF; native full-length E2p in native PDHc; catalytic domain modelled from P384 plus one lipoyl domain (averaged, modelled as innermost, K245); octahedral 24-mer
T1 sequence (P06959 2-630): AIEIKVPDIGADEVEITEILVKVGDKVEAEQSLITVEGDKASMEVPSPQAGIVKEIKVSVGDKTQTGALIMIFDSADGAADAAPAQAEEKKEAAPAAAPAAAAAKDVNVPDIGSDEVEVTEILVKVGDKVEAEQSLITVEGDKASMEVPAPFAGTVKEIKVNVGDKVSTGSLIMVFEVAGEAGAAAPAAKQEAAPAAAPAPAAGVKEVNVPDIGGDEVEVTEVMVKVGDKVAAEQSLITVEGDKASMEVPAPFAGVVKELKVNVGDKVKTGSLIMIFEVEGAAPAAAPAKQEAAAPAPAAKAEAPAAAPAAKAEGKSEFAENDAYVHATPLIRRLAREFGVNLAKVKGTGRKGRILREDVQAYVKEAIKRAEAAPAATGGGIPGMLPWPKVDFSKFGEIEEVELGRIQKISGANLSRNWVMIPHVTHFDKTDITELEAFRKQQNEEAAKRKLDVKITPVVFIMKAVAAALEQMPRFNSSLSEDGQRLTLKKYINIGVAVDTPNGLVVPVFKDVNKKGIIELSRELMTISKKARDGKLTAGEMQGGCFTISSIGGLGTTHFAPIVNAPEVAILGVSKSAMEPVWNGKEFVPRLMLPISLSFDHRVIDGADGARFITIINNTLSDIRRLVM
Put plainly: cryo-EM structure, […] A. The data set is classed as binding. To be noted: covalent: moiety attached by amide bond to K245 of the lipoyl domain of the same protein (dihydrolipoyllysine), not the free amide; bound in E2p active site channel; no CoA; reduced state modelled, ox.

Data set [2] has as its target B2. Put plainly: cryo-EM structure; whole native PDHc (approx. 4.5 MDa) isolated from E. coli K12; low-resolution reconstruction without symmetry; 2D classes of the outer shell after subtraction of the E2p core. To be noted: both partners purified.
Data set [3] concerns the molecule itself. Put plainly: cryo-EM structure; native E2p core of PDHc isolated from E. coli K12, resting state without substrates; 20 mM Hepes pH 7.5, 150 mM NaCl; O symmetry imposed, 3.16 Å.
The target in data set [4] is T2, pyruvate dehydrogenase (E1p) of the E. coli pyruvate dehydrogenase complex (E. coli K12 (endogenous), UniProt P0AFG8 1-887).
T2 construct: pyruvate dehydrogenase E1 component (E1p), E. coli K12, endogenous subunit of the native PDHc; source: endogenous, E. coli K12
T2 sequence (P0AFG8 whole entry, one chain of several): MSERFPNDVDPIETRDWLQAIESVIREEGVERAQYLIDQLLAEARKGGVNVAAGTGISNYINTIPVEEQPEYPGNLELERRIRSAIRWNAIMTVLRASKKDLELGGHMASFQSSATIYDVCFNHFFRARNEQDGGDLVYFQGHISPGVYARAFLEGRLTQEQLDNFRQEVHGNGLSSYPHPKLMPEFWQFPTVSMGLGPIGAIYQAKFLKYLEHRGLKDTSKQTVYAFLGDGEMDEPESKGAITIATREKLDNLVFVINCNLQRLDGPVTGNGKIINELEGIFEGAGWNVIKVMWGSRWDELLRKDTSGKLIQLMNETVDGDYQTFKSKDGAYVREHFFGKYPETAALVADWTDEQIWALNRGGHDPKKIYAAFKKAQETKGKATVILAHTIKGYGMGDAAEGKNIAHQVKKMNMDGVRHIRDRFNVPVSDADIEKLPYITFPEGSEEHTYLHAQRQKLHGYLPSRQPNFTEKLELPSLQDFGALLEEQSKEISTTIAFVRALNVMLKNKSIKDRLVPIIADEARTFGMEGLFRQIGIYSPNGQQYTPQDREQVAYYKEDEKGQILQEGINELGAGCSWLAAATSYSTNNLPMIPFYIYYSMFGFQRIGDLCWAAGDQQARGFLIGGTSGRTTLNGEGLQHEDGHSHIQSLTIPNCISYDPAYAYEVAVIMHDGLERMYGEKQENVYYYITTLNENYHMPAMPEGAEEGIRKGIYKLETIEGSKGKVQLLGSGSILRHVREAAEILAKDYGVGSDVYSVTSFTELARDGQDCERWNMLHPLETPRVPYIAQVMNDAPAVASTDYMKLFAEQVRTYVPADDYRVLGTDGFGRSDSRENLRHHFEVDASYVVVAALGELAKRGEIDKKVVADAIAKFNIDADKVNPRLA
Nature of the data set: cryo-EM structure; whole native PDHc (approx. 4.5 MDa) isolated from E. coli K12; low-resolution reconstruction without symmetry; 2D classes of the outer shell after subtraction of the E2p core. To be noted: both partners purified.

As to `NC(=O)CCCC[C@@H](S)CCS` [dihydrolipoamide], the “cryo-EM structure, 3.16 A” value in data set [1] is on record as “we modeled the prosthetic group as dihydrolipoamide, i.e., the product of the E2p-catalyzed reaction”. For B1, in data set [2], the binding result was “binds”.

Turning to B2, the “stoichiometry N” value in data set [3] was 24. Also, the binding result in data set [4] is “binds”.

These data come from article PMC8421416, “Structure of the native pyruvate dehydrogenase complex reveals the mechanism of substrate insertion” (Nature Communications, 2021).
